Measured values: patent publication US20260000597A1 (priority 2018, published 2026)

Molecular target: AchR (Homo sapiens, UniProt P02708)
Assay: ELISA of screened peptide phages on AchR versus streptavidin (OD450)
Type: binding
Conditions: ELISA of selected 11-mer (L2) peptide phages on AchR, absorbance at 450 nm; Spep-2 positive control
Method in brief: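 Reported as the ratio of AchR to streptavidin OD450, with TMB read-out after HRP anti-M13 detection. Wells coated with 5 μg/ml target overnight at 4 °C and BSA-blocked, then incubated 1 h at 30 °C with helper-rescued phage from individual plaques.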

Chain of AchR (P02708 21-457): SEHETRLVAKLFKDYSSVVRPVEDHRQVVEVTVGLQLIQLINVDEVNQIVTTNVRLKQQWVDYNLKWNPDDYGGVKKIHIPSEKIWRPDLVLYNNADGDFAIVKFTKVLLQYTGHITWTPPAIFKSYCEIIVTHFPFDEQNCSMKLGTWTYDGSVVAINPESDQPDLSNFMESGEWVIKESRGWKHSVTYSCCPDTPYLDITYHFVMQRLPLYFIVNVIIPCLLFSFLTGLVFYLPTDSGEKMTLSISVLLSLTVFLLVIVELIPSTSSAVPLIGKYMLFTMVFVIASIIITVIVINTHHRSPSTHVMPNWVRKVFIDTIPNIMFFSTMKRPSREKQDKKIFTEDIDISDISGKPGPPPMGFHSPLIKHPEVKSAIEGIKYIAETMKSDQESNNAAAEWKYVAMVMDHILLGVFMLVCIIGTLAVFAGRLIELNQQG

Substance	OD
L2-85 (VFVKWRRQMMR; AchR binding peptide) [Peptide L2-85]	0.768
L2-86 (SQWKIRKRLIR; AchR binding peptide) [Peptide L2-86]	0.701
L2-87 (EWHKVRRVYAK; AchR binding peptide) [Peptide L2-87]	0.716
L2-88 (NAMRTKRMSFK; AchR binding peptide) [Peptide L2-88]	0.744
L2-89 (PPFKFRKPLGR; AchR binding peptide) [Peptide L2-89]	0.749
L2-90 (TSVKKRKQRLR; AchR binding peptide) [Peptide L2-90]	0.765
L2-91 (PIDKFKRGMVR; AchR binding peptide) [Peptide L2-91]	0.517
L2-92 (FVGRWKREYAK; AchR binding peptide) [Peptide L2-92]	0.634
L2-93 (FNPKMRKVCLR; AchR binding peptide) [Peptide L2-93]	0.635
L2-94 (NPGKTKRWLQR; AchR binding peptide) [Peptide L2-94]	0.642
L2-95 (IMDKRRKPGCR; AchR binding peptide) [Peptide L2-95]	0.522
L2-96 (ISDKAKRQHFK; AchR binding peptide) [Peptide L2-96]	0.708
L2-97 (DVNKYRKHSHK; AchR binding peptide) [Peptide L2-97]	0.531
L2-98 (LMLRGKRLTTK; AchR binding peptide) [Peptide L2-98]	0.626
L2-99 (CSLRARKEEWR; AchR binding peptide) [Peptide L2-99]	0.52
L2-100 (MNYRCKRVQER; AchR binding peptide) [Peptide L2-100]	0.551
L2-101 (NGVRERKWQSK; AchR binding peptide) [Peptide L2-101]	0.592
L2-102 (YTSRCKKQPRK; AchR binding peptide) [Peptide L2-102]	0.608
L2-103 (QYNKGRKIHVR; AchR binding peptide) [Peptide L2-103]	0.571
L2-104 (PEDRQRKTWFK; AchR binding peptide) [Peptide L2-104]	0.563
L2-105 (IEMKPRKFGVK; AchR binding peptide) [Peptide L2-105]	0.488
L2-106 (QRWKWRKSLAR; AchR binding peptide) [Peptide L2-106]	0.926

Substance	OD
L2-107 (VKHKERKCQRR; AchR binding peptide) [Peptide L2-107]	0.681
L2-108 (QQDRPKRDIPK; AchR binding peptide) [Peptide L2-108]	0.716
L2-109 (YPTKGKRCMIR; AchR binding peptide) [Peptide L2-109]	0.596
L2-111 (GYFRPRKETCK; AchR binding peptide) [Peptide L2-111]	0.594
L2-112 (CFFKMRRCNTK; AchR binding peptide) [Peptide L2-112]	0.646
L2-113 (QNDKDRKLSHR; AchR binding peptide) [Peptide L2-113]	0.64
L2-114 (QVTKSKRVAFK; AchR binding peptide) [Peptide L2-114]	0.643
L2-115 (VRAKHRKSSLR; AchR binding peptide) [Peptide L2-115]	0.837
L2-116 (SHSRQRKTPLR; AchR binding peptide) [Peptide L2-116]	0.699
L2-117 (DNGKIRRCLGK; AchR binding peptide) [Peptide L2-117]	0.607
L2-118 (FLRRLKKVHWK; AchR binding peptide) [Peptide L2-118]	0.65
L2-119 (FCRRSKKIGRR; AchR binding peptide) [Peptide L2-119]	0.56
L2-120 (PAARTKRMYGR; AchR binding peptide) [Peptide L2-120]	0.607
L2-121 (HETKPKKDGLR; AchR binding peptide) [Peptide L2-121]	0.492
L2-122 (MGDRPRKWDSR; AchR binding peptide) [Peptide L2-122]	0.558
L2-123 (HDTKCKKMYAK; AchR binding peptide) [Peptide L2-123]	0.473
L2-124 (NVVRGRRLECR; AchR binding peptide) [Peptide L2-124]	0.556
L2-125 (PADKGRREVMK; AchR binding peptide) [Peptide L2-125]	0.481
L2-126 (AMMKYKKEFPK; AchR binding peptide) [Peptide L2-126]	0.605
L2-127 (YIIRWKRQMTR; AchR binding peptide) [Peptide L2-127]	0.569
L2-128 (SPWRIRRQNIR; AchR binding peptide) [Peptide L2-128]	0.516
L2-129 (TCIKYRRAHTK; AchR binding peptide) [Peptide L2-129]	0.603

Substance	OD
L2-130 (GYDRARKGTLR; AchR binding peptide) [Peptide L2-130]	0.64
L2-131 (MTLKHRRVYIK; AchR binding peptide) [Peptide L2-131]	0.462
L2-132 (LFTRIKRLVCK; AchR binding peptide) [Peptide L2-132]	0.515
L2-133 (DFSRDRRCLSK; AchR binding peptide) [Peptide L2-133]	0.526
L2-134 (VWNKVKRWLER; AchR binding peptide) [Peptide L2-134]	0.44
L2-135 (FPGKNRKYCSR; AchR binding peptide) [Peptide L2-135]	0.557
L2-136 (YTSKNKRGCPR; AchR binding peptide) [Peptide L2-136]	0.454
L2-137 (CACKQRRATSR; AchR binding peptide) [Peptide L2-137]	0.452
L2-138 (IMERQRKSQHR; AchR binding peptide) [Peptide L2-138]	0.509
L2-139 (SVLRCRKCSMK; AchR binding peptide) [Peptide L2-139]	0.528
L2-140 (YPQKLRRTALK; AchR binding peptide) [Peptide L2-140]	0.445
L2-141 (SSHKGKRAQSK; AchR binding peptide) [Peptide L2-141]	0.462
L2-142 (DNPRFRKTILK; AchR binding peptide) [Peptide L2-142]	0.512
L2-143 (AIIKFRKVQWK; AchR binding peptide) [Peptide L2-143]	0.401
L2-144 (PYTRCRKEICK; AchR binding peptide) [Peptide L2-144]	0.521
L2-145 (MNEKPKKNDQK; AchR binding peptide) [Peptide L2-145]	0.468
L2-146 (LIGKFKKPFYR; AchR binding peptide) [Peptide L2-146]	0.605
L2-147 (TWCKHKKLDMK; AchR binding peptide) [Peptide L2-147]	0.641
L2-148 (DSNKVRKCSSK; AchR binding peptide) [Peptide L2-148]	0.604
L2-149 (LPMKQRKCEFR; AchR binding peptide) [Peptide L2-149]	0.465
L2-150 (EDVRVKRQTCR; AchR binding peptide) [Peptide L2-150]	0.579
L2-151 (TQCKDRRVSDR; AchR binding peptide) [Peptide L2-151]	0.749

Substance	OD
L2-152 (IALKPKRVWLK; AchR binding peptide) [Peptide L2-152]	0.681
L2-153 (GHQRGKREGSR; AchR binding peptide) [Peptide L2-153]	0.688
L2-154 (NPFKYKKICPK; AchR binding peptide) [Peptide L2-154]	0.736
L2-155 (NEARIKKCDVK; AchR binding peptide) [Peptide L2-155]	0.742
L2-156 (YGLRMRKWYMK; AchR binding peptide) [Peptide L2-156]	0.683
L2-157 (NFYKCRKLQCK; AchR binding peptide) [Peptide L2-157]	0.731
L2-158 (MMTKYKKTCCK; AchR binding peptide) [Peptide L2-158]	0.73
L2-159 (CNQKTKKIAEK; AchR binding peptide) [Peptide L2-159]	0.696
L2-160 (ADIRMKKWYPK; AchR binding peptide) [Peptide L2-160]	0.721
L2-161 (AWFRVKRSNCR; AchR binding peptide) [Peptide L2-161]	0.579
L2-162 (NCDRTRKHWAR; AchR binding peptide) [Peptide L2-162]	0.584
L2-163 (PHARTRKNITK; AchR binding peptide) [Peptide L2-163]	0.725
L2-164 (VPTKMKKYETK; AchR binding peptide) [Peptide L2-164]	0.733
L2-165 (AYPKFRKTFNR; AchR binding peptide) [Peptide L2-165]	0.718
L2-166 (QQLRLRKLCGK; AchR binding peptide) [Peptide L2-166]	0.579
L2-167 (MFMRNKKLAWR; AchR binding peptide) [Peptide L2-167]	0.584
L2-168 (GGAKNKKVVSR; AchR binding peptide) [Peptide L2-168]	0.725
L2-169 (HDPRHKKTPTK; AchR binding peptide) [Peptide L2-169]	0.733
L2-170 (QVHRNKRYTDR; AchR binding peptide) [Peptide L2-170]	0.718
L2-171 (YGTRPKKYVSK; AchR binding peptide) [Peptide L2-171]	0.689
